Measured values as given in the supplement of paper PMC9233669.
This sample holds only a part of the variants without activity.

Tests used:
biotinyl-Phe-oxazolone = test: self-aminoacylation, catalytic enhancement (BFO) (fold over background); higher = more active; k-Seq, kA / k0A0; sequences stand for … in GGGAAUGGAUCCACAUCUACGAAUUC…UUCACUGCAGACUUGACGAAGCUG
Procedure, shortened: (§1)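 Catalytic enhancement equals the median kA over the uncatalyzed rate, the latter read from the low-activity peak of a bimodal Gaussian fit. Values of kA came from fitting each sequence's fraction reacted to a pseudo-first-order model, with 1000 bootstraps. Reacted RNA was captured with streptavidin and quantified by triplicate qPCR and Illumina sequencing after 90 minutes at room temperature with 2–1250 μM biotinyl-aminoacyl-oxazolone and 0.43 μM mutagenized RNA pools bearing a 21-nt variable region.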

biotinyl-Ile-oxazolone = test: self-aminoacylation, catalytic enhancement (BIO) (fold over background); higher = more active; k-Seq, kA / k0A0; sequences stand for … in GGGAAUGGAUCCACAUCUACGAAUUC…UUCACUGCAGACUUGACGAAGCUG
Procedure, shortened: as §1

biotinyl-Met-oxazolone = test: self-aminoacylation, catalytic enhancement (BMO) (fold over background); higher = more active; k-Seq, kA / k0A0; sequences stand for … in GGGAAUGGAUCCACAUCUACGAAUUC…UUCACUGCAGACUUGACGAAGCUG
Procedure, shortened: as §1

biotinyl-Val-oxazolone = test: self-aminoacylation, catalytic enhancement (BVO) (fold over background); higher = more active; k-Seq, kA / k0A0; sequences stand for … in GGGAAUGGAUCCACAUCUACGAAUUC…UUCACUGCAGACUUGACGAAGCUG
Procedure, shortened: as §1

biotinyl-Leu-oxazolone = test: self-aminoacylation, catalytic enhancement (BLO) (fold over background); higher = more active; k-Seq, kA / k0A0; sequences stand for … in GGGAAUGGAUCCACAUCUACGAAUUC…UUCACUGCAGACUUGACGAAGCUG
Procedure, shortened: as §1

biotinyl-Trp-oxazolone = test: self-aminoacylation, catalytic enhancement (BWO) (fold over background); higher = more active; k-Seq, kA / k0A0; sequences stand for … in GGGAAUGGAUCCACAUCUACGAAUUC…UUCACUGCAGACUUGACGAAGCUG
Procedure, shortened: as §1

Sequence | self-aminoacylation (biotinyl-Phe-oxazolone) | self-aminoacylation (biotinyl-Ile-oxazolone) | self-aminoacylation (biotinyl-Met-oxazolone) | self-aminoacylation (biotinyl-Val-oxazolone) | self-aminoacylation (biotinyl-Leu-oxazolone) | self-aminoacylation (biotinyl-Trp-oxazolone)
CAACUUCCAACAAUCGGUCUG [Fam1A.1 aminoacylation ribozyme variant] | 1.69 | 1.13 | 1.15 | 0.929 | 0.985 | 1.14
CAGCACUUCAAGCAAUCGGUC [Fam1B.1 aminoacylation ribozyme variant] | 34.4 | 1.67 | 1.79 | 1.55 | 2.33 | 22.1
CAGUGUGCUAAUAGUCGCAAG [Fam3.1 aminoacylation ribozyme variant] | 1.76 | 1.51 | 1.58 | 1.46 | 1.46 | 1.59
CAGUUUGCAAAUAGUCGCAAG [Fam3.1 aminoacylation ribozyme variant] | 2.37 | 1.72 | 1.65 | 1.52 | 2.03 | 2.02
CAGUUUGCUAAUAAUCGCAAG [Fam3.1 aminoacylation ribozyme variant] | 1.1 | 0.97 | 1 | 1.03 | 0.99 | 0.939
CAGUUUGCUAAUAGCCGCAAG [Fam3.1 aminoacylation ribozyme variant] | 1.44 | 1.86 | 1.26 | 1.46 | 1.69 | 1.07
CAGUUUGCUAAUAGUAGCAAG [Fam3.1 aminoacylation ribozyme variant] | 2.46 | 1.26 | 1.58 | 1.04 | 1.5 | 1.65
CAGUUUGCUAAUAGUCGCACG [Fam3.1 aminoacylation ribozyme variant] | 1.25 | 1.3 | 1.1 | 1.05 | 1.35 | 1.46
CAGUUUGCUAAUAGUUGCAAG [Fam3.1 aminoacylation ribozyme variant] | 1.55 | 1.53 | 1.44 | 1.23 | 1.5 | 1.18
CAGUUUGCUAUUAGUCGCAAG [Fam3.1 aminoacylation ribozyme variant] | 1.88 | 1.24 | 1.25 | 1.22 | 1.5 | 1.29
CCAAACCUCAAGCAAUCGGUC [Fam1B.1 aminoacylation ribozyme variant] | 1.54 | 1.35 | 1.12 | 1.29 | 1.27 | 1.22
CCAAACUUCAAACAAUCGGUC [Fam1B.1 aminoacylation ribozyme variant] | 86.6 | 1.35 | 1.53 | 1.52 | 2.21 | 42
CCAAACUUCAAGCAAACGGUC [Fam1B.1 aminoacylation ribozyme variant] | 0.911 | 0.832 | 0.699 | 0.846 | 0.607 | 0.811
CCAAACUUCAAGCAAUUGGUC [Fam1B.1 aminoacylation ribozyme variant] | 1.1 | 0.759 | 0.81 | 0.828 | 0.767 | 0.886
CCAAACUUCAAGCCAUCGGUC [Fam1B.1 aminoacylation ribozyme variant] | 1.07 | 1.15 | 1.28 | 1.18 | 1.03 | 1.01
CCAAACUUCAAGCGAUCGGUC [Fam1B.1 aminoacylation ribozyme variant] | 1.09 | 1.1 | 1.11 | 1.35 | 1.32 | 1.25
CCAAACUUUAAGCAAUCGGUC [Fam1B.1 aminoacylation ribozyme variant] | 0.824 | 1.11 | 0.869 | 0.993 | 0.846 | 0.664
CCACAAUGCAAGCAAUCGGUC [Fam1B.1 aminoacylation ribozyme variant] | 1.02 | 1.48 | 1.22 | 1.41 | 1.01 | 0.93
CCACAAUUCAAGAAAUCGGUC [Fam1B.1 aminoacylation ribozyme variant] | 1.38 | 0.949 | 0.78 | 0.906 | 0.866 | 1.41
CCACACAGCAAGCAAUCGGUC [Fam1B.1 aminoacylation ribozyme variant] | 1.35 | 0.864 | 0.699 | 1.11 | 0.787 | 0.608
CCACACAUCAAGCAAGCGGUC [Fam1B.1 aminoacylation ribozyme variant] | 0.546 | 0.968 | 0.779 | 1.03 | 0.901 | 0.988
CCACACAUCAAGCAAUCGGUG [Fam1B.1 aminoacylation ribozyme variant] | 31.6 | 3.27 | 4.98 | 3.26 | 6.65 | 5.14
CCACACAUCAAGCACUCGGUC [Fam1B.1 aminoacylation ribozyme variant] | 0.805 | 0.935 | 1.02 | 1.18 | 0.724 | 0.94
CCACACAUCUAGCAAUCGGUC [Fam1B.1 aminoacylation ribozyme variant] | 0.911 | 0.894 | 0.797 | 0.93 | 0.712 | 0.615
CCACACCUCAACCAAUCGGUC [Fam1B.1 aminoacylation ribozyme variant] | 3.45 | 1.11 | 1.37 | 1.02 | 1.28 | 3.13
CCACACCUCAAGCAAGCGGUC [Fam1B.1 aminoacylation ribozyme variant] | 1.27 | 1.34 | 1.02 | 1.21 | 0.921 | 1.32

Sequence | self-aminoacylation (biotinyl-Phe-oxazolone) | self-aminoacylation (biotinyl-Ile-oxazolone) | self-aminoacylation (biotinyl-Met-oxazolone) | self-aminoacylation (biotinyl-Val-oxazolone) | self-aminoacylation (biotinyl-Leu-oxazolone) | self-aminoacylation (biotinyl-Trp-oxazolone)
CCACACCUCAAGCAAUCGGUC [Fam1B.1 aminoacylation ribozyme variant] | 2.37 | 1.03 | 0.862 | 1.15 | 0.908 | 1.56
CCACACCUCAAGCGAUCGGUC [Fam1B.1 aminoacylation ribozyme variant] | 1.09 | 1.31 | 1.33 | 1.73 | 1.69 | 1.5
CCACACCUCCAGCAAUCGGUC [Fam1B.1 aminoacylation ribozyme variant] | 1.64 | 1.69 | 1.27 | 1.4 | 1.15 | 1.19
CCACACGUCAAGAAAUCGGUC [Fam1B.1 aminoacylation ribozyme variant] | 1.01 | 1.28 | 1.17 | 1.44 | 1.28 | 0.951
CCACACGUCAAGCAAUCUGUC [Fam1B.1 aminoacylation ribozyme variant] | 0.326 | 0.54 | 0.472 | 0.543 | 0.422 | 0.24
CCACACGUCAAGCACUCGGUC [Fam1B.1 aminoacylation ribozyme variant] | 2.16 | 1.17 | 1.13 | 2.17 | 1.23 | 1.1
CCACACGUCUAGCAAUCGGUC [Fam1B.1 aminoacylation ribozyme variant] | 0.972 | 1.01 | 0.9 | 1.15 | 0.937 | 0.768
CCACACUACAAGCAAUGGGUC [Fam1B.1 aminoacylation ribozyme variant] | 0.762 | 0.72 | 0.778 | 0.842 | 0.511 | 0.735
CCACACUAGAAGCAAUCGGUC [Fam1B.1 aminoacylation ribozyme variant] | 0.713 | 0.809 | 0.747 | 0.961 | 0.954 | 0.873
CCACACUCCAAGCAAUCGCUC [Fam1B.1 aminoacylation ribozyme variant] | 0.753 | 1.92 | 1.29 | 2.56 | 1.38 | 2.47
CCACACUCCAAGCAAUCGGAC [Fam1B.1 aminoacylation ribozyme variant] | 0.729 | 1.09 | 0.74 | 0.937 | 1.37 | 0.574
CCACACUCCAAGCAAUCGGUG [Fam1B.1 aminoacylation ribozyme variant] | 59.9 | 4.43 | 7.47 | 4.45 | 9.97 | 6.72
CCACACUCCACGCAAUCGGUC [Fam1B.1 aminoacylation ribozyme variant] | 0.759 | 1.51 | 1 | 1.62 | 1.2 | 1.18
CCACACUCCCAGCAAUCGGUC [Fam1B.1 aminoacylation ribozyme variant] | 0.634 | 1.65 | 1.41 | 1.59 | 1.6 | 1.02
CCACACUCUAAGCAAUCGGUC [Fam1B.1 aminoacylation ribozyme variant] | 1.04 | 0.985 | 0.69 | 1.06 | 0.683 | 0.903
CCACACUGCAAGAAAUCGGUC [Fam1B.1 aminoacylation ribozyme variant] | 1.29 | 1.51 | 1.12 | 1.72 | 1.51 | 1.51
CCACACUGCAAGCAAUAGGUC [Fam1B.1 aminoacylation ribozyme variant] | 1.15 | 0.905 | 0.777 | 0.907 | 0.915 | 0.601
CCACACUGCAAGCAAUCGCUC [Fam1B.1 aminoacylation ribozyme variant] | 16 | 2.73 | 2.1 | 2.35 | 2.4 | 1.78
CCACACUGCAAGCAAUCGGUA [Fam1B.1 aminoacylation ribozyme variant] | 0.894 | 2.19 | 2.16 | 2.25 | 2.11 | 2.33
CCACACUUAAAGCAAUCGGCC [Fam1B.1 aminoacylation ribozyme variant] | 7.34 | 1.72 | 1.71 | 1.97 | 2.15 | 1.7
CCACACUUAAAGCAUUCGGUC [Fam1B.1 aminoacylation ribozyme variant] | 1.03 | 1.63 | 1.17 | 1.58 | 1.29 | 1.15
CCACACUUAAAGCGAUCGGUC [Fam1B.1 aminoacylation ribozyme variant] | 0.793 | 1.23 | 0.963 | 1.18 | 1 | 0.934
CCACACUUAAAUCAAUCGGUC [Fam1B.1 aminoacylation ribozyme variant] | 0.699 | 0.829 | 0.589 | 0.914 | 0.787 | 0.868
CCACACUUAAGGCAAUCGGUC [Fam1B.1 aminoacylation ribozyme variant] | 0.764 | 1.15 | 0.983 | 0.981 | 1.03 | 1.25
CCACACUUAAUGCAAUCGGUC [Fam1B.1 aminoacylation ribozyme variant] | 0.949 | 0.855 | 0.752 | 0.763 | 0.693 | 0.642
